This note sets out measurements from patent publication US20060014712A1 (CeMines, Inc., published 2006).

Like-named read-outs stand apart in the source and are kept apart here.

Common to all, as to assay: cell-based or functional assay
The target in assay [1] is T1, STAT3 (Homo sapiens (Human), UniProt P40763).
The target of assay [2] is T2, SOX10 (Homo sapiens (Human), UniProt P56693).
The target in assay [3] is T3, MITF (Homo sapiens (Human), UniProt O75030-9).
Assay [4] has as its target T2, SOX10. The source holds these as a separate data set.
The target in assay [5] is T3, MITF. The source holds these as a separate data set.
The target in assay [6] is T1, STAT3. The source holds these as a separate data set.

B1: STAT3-int1M (peptide)
peptide: TTGGSSPQGLEAKRPKKRKVRRRKMQQLEQMLTALDQMRRSIVSELAGLLS
In the case of B1, the “Apoptosis 7 d/% in SK-MEL-28” value in assay [1] worked out at 12%.
With RPKKRKVRRRVKRPMNAFMVWAQAARRKLADQY [SOX10-int1], the “Apoptosis 7 d/% in SK-MEL-28” value in assay [2] was 55%.
For TTGGSSPQGLEAKRPKKRKVRRRFNINDRIKELGTLIPKSNDPDMRWN [MITF-int1M], the “Apoptosis 7 d/% in SK-MEL-28” value in assay [3] was found to be 20%.

B2: Scr-int1M (peptide)
peptide: TTGGSSPQGLEAKRPKKRKVRRRQLMLEPYALDMSRIRVLSESLGLATQSG
B2: the “Apoptosis 7 d/% in SK-MEL-28” value in assay [3], in assay [4] and in assay [1] was 0% each time.
For the molecule TTGGSSPQGLEAKRPKKRKVRRRVKRPMNAFMVWAQAARRKLADQY [SOX10-int1M], the “Apoptosis 7 d/% in SK-MEL-28” value in assay [4] was determined as 32%.
With RPKKRKVRRRQLMLEPYALDMSRIRVLSESLGLATQSG [Scr-int1], the “Apoptosis 7 d/% in SK-MEL-28” value in assay [5], in assay [2] and in assay [6] was 0% throughout.
